From article PMC4503265 (The Journal of biological chemistry, 2008)
Changes are numbered by the printed parent chain. Names may count otherwise.

B1: wild-type dopamine transporter (DAT^WT), no tag named (natural protein, human, UniProt Q01959 1-620, looked up)
chain: MSKSKCSVGLMSSVVAPAKEPNAVGPKEVELILVKEQNGVQLTSSTLTNPRQSPVEAQDRETWGKKIDFLLSVIGFAVDLANVWRFPYLCYKNGGGAFLVPYLLFMVIAGMPLFYMELALGQFNREGAAGVWKICPILKGVGFTVILISLYVGFFYNVIIAWALHYLFSSFTTELPWIHCNNSWNSPNCSDAHPGDSSGDSSGLNDTFGTTPAAEYFERGVLHLHQSHGIDDLGPPRWQLTACLVLVIVLLYFSLWKGVKTSGKVVWITATMPYVVLTALLLRGVTLPGAIDGIRAYLSVDFYRLCEASVWIDAATQVCFSLGVGFGVLIAFSSYNKFTNNCYRDAIVTTSINSLTSFSSGFVVFSFLGYMAQKHSVPIGDVAKDGPGLIFIIYPEAIATLPLSSAWAVVFFIMLLTLGIDSAMGGMESVITGLIDEFQLLHRHRELFTLFIVLATFLLSLFCVTNGGIYVFTLLDHFAAGTSILFGVLIEAIGVAWFYGVGQFSDDIQQMTGQRPSLYWRLCWKLVSPCFLLFVVVVSIVTFRPPHYGAYIFPDWANALGWVIATSSMAMVPIYAAYKFCSLPGSFREKLAYAIAPEKDRELVDRGEVRQFTLRHWLKV
B2: His-tagged wild-type dopamine transporter (His-DAT^WT) (natural protein, human, UniProt Q01959 1-620, looked up)
chain: B1 chain
B3: Myc-tagged wild-type glycine transporter 2 (Myc-GlyT2^WT) (natural protein, mouse, UniProt Q761V0 1-799, looked up)
chain: MDCSAPKEMNKQPANILEAAVPGHRDSPRAPRTSPEQDLPAEAPAATVQPPRVPRSASTGAQTFQSADARACEAQQSGVGFCNLSSPRAQATSAALRDLSEGHSAQANPPSGPAGAGNALHCKIPALRGPEEDANVSVGKGTLEHNNTPAVGWVNMSQSTVVLGTDGIASVLPGSVATTTIPEDEQGDENKARGNWSSKLDFILSMVGYAVGLGNVWRFPYLAFQNGGGAFLIPYLMMLALAGLPIFFLEVSLGQFASQGPVSVWKAIPALQGCGIAMLIISVLIAIYYNVIICYTLFYLFASFVSVLPWGSCNNPWNTPECKDKTKLLLDSCVIGDHPKIQIKNSTFCMTAYPNLTMVNFTSQTNKTFVSGSEEYFKYFVLKISAGIEYPGEIRWPLAFCLFLAWVIVYASLAKGIKSSGKVVYFTATFPYVVLVILLIRGVTLPGAGAGIWYFITPKWEKLTDATVWKDAATQIFFSLSAAWGGLITLSSYNKFHNNCYRDTLIVTCTNSATSIFAGFVIFSVIGFMANERKVNIENVADQGPGIAFVVYPEALTRLPLSPFWAIIFFLMLLTLGLDTMFATIETIVTSISDEFPKYLRTHKPVFTLGCCICFFIMGFPMITQGGIYMFQLVDTYAASYALVIIAIFELVGISYVYGLQRFCEDIEMMIGFKPNIFWKVCWAFVTPTILTFILCFSFYQWEPMTYGSYRYPNWSMVLGWLMLACSVIWIPIMFVIKMYLAPGRFIERLKLVCSPQPDWGPFLAQHRGERYKNMIDPLGTSSLGLKLPVKDLELGTQC
B4: His-GlyT2^T464C expressed in Xenopus laevis oocytes (natural protein, mouse, UniProt Q761V0 1-799, looked up)
chain: B3 chain with T464C
B5: GlyT2^T464C (no tag named) (natural protein, mouse, UniProt Q761V0 1-799, looked up)
chain: B3 chain with T464C
B6: His- or Myc-tagged GlyT2^T464C (natural protein, mouse, UniProt Q761V0 1-799, looked up)
chain: B3 chain with T464C

Assays:
[1] = target: the molecule itself; assay: cross-linking
[2] = target: the molecule itself; assay: SDS-resistant band in nonreducing SDS-PAGE with Western blot
[3] = target: the molecule itself; assay: cross-linking; remark: listed apart in the source
[4] = target: the molecule itself; assay: pull-down

Row | Protein | stoichiometry N [1] | other results
1 | B1 | 2 | 
2 | B2 | 2 | 
3 | B3 |  | stoichiometry N [2]: 2
4 | B4 |  | stoichiometry N [3]: 2
5 | B5 | 2 | 
6 | B6 |  | stoichiometry N [4]: 2
